Paper PMC4837482, “The complex binding mode of the peptide hormone H2 relaxin to its receptor RXFP1” (Nature Communications, 2016)
Changes are numbered by the printed parent chain.

Tests used:
Assay in all cases: cAMP activity assay (pCRE β-galactosidase reporter), transfected HEK293T cells
Type in all cases: cell-based
[1] = molecular target: T1, RXFP1 A68^Δ (Homo sapiens, UniProt Q9HBX9, DEL90-90); settings: construct A68^Δ, ±s.e.m.
T1 construct: transiently transfected human embryonic kidney (HEK) 293T cells expressing full-length RXFP1 and mutants; expressed in transfected cells; host or cells: HEK293T
T1 sequence (Q9HBX9 with tags, fused parts or gaps DEL90-90 limits assumed): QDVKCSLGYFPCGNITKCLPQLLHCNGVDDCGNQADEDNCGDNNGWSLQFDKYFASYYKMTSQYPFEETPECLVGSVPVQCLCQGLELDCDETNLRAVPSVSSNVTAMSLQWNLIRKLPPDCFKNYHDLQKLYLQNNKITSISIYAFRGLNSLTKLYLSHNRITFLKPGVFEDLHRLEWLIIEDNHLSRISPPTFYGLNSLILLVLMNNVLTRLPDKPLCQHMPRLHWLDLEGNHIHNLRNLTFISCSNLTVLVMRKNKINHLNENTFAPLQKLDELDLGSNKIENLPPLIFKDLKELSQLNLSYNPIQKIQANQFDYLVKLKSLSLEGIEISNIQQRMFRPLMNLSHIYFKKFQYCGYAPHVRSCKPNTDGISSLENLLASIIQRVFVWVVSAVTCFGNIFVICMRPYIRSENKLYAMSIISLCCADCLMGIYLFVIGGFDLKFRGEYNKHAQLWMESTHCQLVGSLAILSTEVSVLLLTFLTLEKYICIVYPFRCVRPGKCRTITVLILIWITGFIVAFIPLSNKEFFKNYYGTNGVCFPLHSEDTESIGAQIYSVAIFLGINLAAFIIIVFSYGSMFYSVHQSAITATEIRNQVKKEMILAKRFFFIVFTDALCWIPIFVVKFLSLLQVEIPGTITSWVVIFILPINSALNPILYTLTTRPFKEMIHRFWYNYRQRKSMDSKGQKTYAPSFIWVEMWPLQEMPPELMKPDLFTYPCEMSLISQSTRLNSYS
Method in brief: (§1)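 Receptor signalling is measured as CRE-driven β-galactosidase activity after H2 relaxin exposure, using a colorimetric substrate read at 570 nm. Values are normalised to 5 μM Forskolin, pooled from at least three independent triplicate experiments.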

[2] = molecular target: T2, RXFP1 Q49A/F50A (Homo sapiens, UniProt Q9HBX9, F72A/Q71A); settings: construct Q49A/F50A, ±s.e.m.
T2 construct: cells expressing full-length RXFP1 and mutants; expressed in transfected cells; host or cells: HEK293T
T2 sequence (Q9HBX9 23-757 Q71A/F72A limits assumed): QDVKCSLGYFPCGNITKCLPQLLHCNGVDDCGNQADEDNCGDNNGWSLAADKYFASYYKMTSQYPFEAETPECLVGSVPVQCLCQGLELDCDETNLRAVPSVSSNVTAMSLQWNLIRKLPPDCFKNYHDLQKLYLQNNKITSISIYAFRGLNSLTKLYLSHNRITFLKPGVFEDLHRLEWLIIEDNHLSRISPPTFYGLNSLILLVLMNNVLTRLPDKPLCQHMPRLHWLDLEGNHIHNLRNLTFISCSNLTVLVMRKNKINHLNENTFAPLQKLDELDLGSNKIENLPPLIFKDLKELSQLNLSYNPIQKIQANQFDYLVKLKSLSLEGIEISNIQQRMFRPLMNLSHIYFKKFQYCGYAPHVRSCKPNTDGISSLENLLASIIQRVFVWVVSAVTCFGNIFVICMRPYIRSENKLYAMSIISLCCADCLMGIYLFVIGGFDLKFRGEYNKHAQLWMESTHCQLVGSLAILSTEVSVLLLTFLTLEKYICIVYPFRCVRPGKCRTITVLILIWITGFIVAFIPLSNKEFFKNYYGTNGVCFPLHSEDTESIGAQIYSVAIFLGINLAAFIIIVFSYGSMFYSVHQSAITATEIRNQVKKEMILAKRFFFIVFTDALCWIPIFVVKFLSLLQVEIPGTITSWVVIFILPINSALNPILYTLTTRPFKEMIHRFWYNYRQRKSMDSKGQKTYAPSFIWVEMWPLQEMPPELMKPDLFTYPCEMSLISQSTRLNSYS
Method in brief: as §1

[3] = molecular target: T3, RXFP1 Y58A (Homo sapiens, UniProt Q9HBX9, Y80A); settings: construct Y58A, ±s.e.m.
T3 construct: cells expressing full-length RXFP1 and mutants; expressed in transfected cells; host or cells: HEK293T
T3 sequence (Q9HBX9 23-757 Y80A limits assumed): T2 sequence (Q9HBX9 23-757 Q71A/F72A limits assumed) with A49Q, A50F, Y58A
Method in brief: as §1

[4] = percentage of maximum response to 5 μM Forskolin

Question: “H2 relaxin: two-chain 6-kDa peptide hormone structurally related to insulin; recombinant human gene-2 H2 relaxin provided by Corthera” was tested. Which “H2 relaxin pEC50” value ([1]; cAMP reporter) did it give?
Answer: 11.18±0.02 (3)

Question: And the “H2 relaxin Emax” value [1, 4]?
Answer: 93.78±3.19 (3) %

Question: What about the “H2 relaxin pEC50” value ([2]; cAMP reporter) of the same substance?
Answer: 9.17±0.04 (3)

Question: What about the “H2 relaxin Emax” value [2, 4] of the same substance?
Answer: 98.2±8.8 (3) %

Question: And the “H2 relaxin pEC50” value ([3]; cAMP reporter)?
Answer: 10.88±0.09 (3)

Question: And the “H2 relaxin Emax” value [3, 4]?
Answer: 89.14±7.93 (3) %
